# From patent publication US20110124842A1 (priority 2003, published 2011)
# Like-named read-outs stand apart in the source and are kept apart here. Where no end group is shown, it is not given here.
# How the values were obtained:
# [1] = molecular target: recombinant gp41 (Example 2 ELISA) (HIV-1) (UniProt P04578); test: ELISA, Fab titrated on immobilized gp41
# [2] = molecular target: recombinant IgG1(kappa) 4E10; test: competitive ELISA: gp41 against biotinylated …(biotin)-NH2 for IgG 4E10
# [3] = molecular target: recombinant IgG1(kappa) 4E10; test: competitive ELISA; converted by the filing on the assumption of 25 kDa and a monomer
# IgG 4E10 = test: Competitive ELISA (IC50): peptide competes with biotinylated 4E10-epitope peptide for IgG 4E10; assay type: binding, human
# Experimental: IC50, were determined by competitive ELISA using a constant concentration of biotinylated peptide and IgG with a variable concentration of gp41 peptides. Microwells were coated overnight at 4° C. with 50 μl PBS containing neutravidin (Pierce; 4 μg/ml). […] A mixture of a biotinylated 4E10-epitope peptide, […](biotin)-NH2 (SEQ ID NO: 88) (20 nM), IgG 4E10 (0.2 nM), and the competing peptide analog (3-fold dilution series starting at 10 μM) in 0.4% non-fat dry milk, 0.02% Tween and PBS was incubated in a separate 96-well plate at 37° C. for 2 hours. After washing the blocked plate, the mixture of 4E10, biotinylated peptide and competing peptide was added to the wells. After 20 minutes at room temperature, the Wells were washed five times, and a 1:500 dilution of goat anti-human IgG F(ab′)2 HRP conjugate (Pierce) was added. Following incubation at RT for 40 minutes, the wells were washed five times, and developed by adding 50 μl of TMB solution (Pierce) according to the manufacturer's instructions. After ˜20 minutes, wells containing TMB solution were stopped by adding 50 μl of H2SO4 (2M) and the O.D. at 450 nm was read on a microplate reader (Molecular Devices). The concentration of competitor peptide corresponding to a half-maximal signal (IC50) was determined by interpolation of the resulting binding curve. Each peptide competitor was tested in duplicate in at least two separate experiments.
# IC50s were determined by competitive ELISA using a constant concentration of biotinylated peptide and IgG with a variable concentration of gp41 peptides. Microwells were coated overnight at 4° C. with 50 μl PBS containing neutravidin (Pierce; 4 μg/ml). […] Meanwhile, a mixture of a biotinylated 4E10-peptide epitope, […](biotin)-NH2 (SEQ ID NO: 88), (20 nM), IgG 4E10 (0.2 nM), and the competing peptide analogue (3-fold dilution series starting at 10 μM) in 0.4% NFDM, 0.02% Tween and PBS was incubated in a separate 96-well plate at 37° C. for 2 h. After washing the blocked plate, the mixture of 4E10, biotinylated peptide and competing peptide was added to the wells. After 20 min at room temperature, the wells were washed five times, and a 1:500 dilution of goat anti-human IgG F(ab′)2 HRP conjugate (Pierce) was added. Following incubation at RT for 40 min, the wells were washed five times, and developed by adding 50 μl of H2SO4 (2 M), and the O.D. at 450 nm was read on a microplate reader (Molecular Devices). The concentration of competitor peptide corresponding to a half-maximal signal (IC50) was determined by interpolation of the resulting binding curve. Each peptide competitor was tested in duplicate in at least two separate experiments.
# [4] = Circular dichroism spectroscopy of free peptides in solution (helicity); assay type: physicochemical; details: FIG. 48
# Experimental: To determine whether the imposed constraints increased the helicity of the peptides, each one was analyzed in solution using circular dichroism (CD) spectroscopy (FIG. 48). An Aviv spectropolarimeter Model 203-02 was used, with cells of 0.1 cm in length, a wavelength step of 0.5 nm and a bandwidth of 1.0 nm. One to three scans were reported. The exact peptide concentrations were determined by UV measurements at 280 nm on a Gison UV detector, model 116.
# [5] = molecular target: peptide 104-2, NWFc(CITO)WLWKKKK-NH2; test: surface plasmon resonance and ELISA
# [6] = molecular target: peptide 33-1, NWFDITN-Aib-LWRR-NH2; test: surface plasmon resonance and ELISA
# peptide 94-1, …-NH2 [7] = test: surface plasmon resonance and ELISA
# [8] = molecular target: peptide 104-2, NWFc(CITO)WLWKKKK-NH2; test: surface plasmon resonance and ELISA (Table 7)
# peptide 94-1, …-NH2 [9] = test: surface plasmon resonance and ELISA (Table 7)
# [10] = molecular target: recombinant gp41 (Example 2 ELISA) (HIV-1) (UniProt P04578); test: direct ELISA, antigen coated on wells, 4E10 at 5 µg/ml
# Fab 4E10 [11] = test: SPR (Biacore 2000), Fab 4E10 on CM5 chip, peptide in flow
# Fab 4E10, sequence (heavy, as listed by the source): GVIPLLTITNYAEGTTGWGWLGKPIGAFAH
# [12] = molecular target: recombinant IgG1(kappa) 4E10; test: competitive ELISA: peptide against biotinylated …(biotin)-NH2 (20 nM) for IgG 4E10 (0.2 nM)
# [13] = molecular target: recombinant IgG1(kappa) 4E10; test: cell-based or functional assay
# [14] = molecular target: recombinant IgG1(kappa) 4E10; test: competitive ELISA for IgG 4E10
# Fab 4E10 [15] = test: SPR (Biacore 2000), Fab 4E10 on CM5 chip, peptide in flow; remark: listed apart in the source
# [16] = molecular target: recombinant IgG1(kappa) 4E10; test: competitive ELISA: peptide against biotinylated …(biotin)-NH2 for IgG 4E10
# [17] = molecular target: recombinant IgG1(kappa) 4E10; test: competitive ELISA, reference peptide of the alanine scan
# recombinant IgG1(kappa) 4E10, sequence (heavy, as listed by the source): as above
molecule,measurement,setting,value
Fab 2F5,EC50 (read off the curve),[1],0.03 µg/mL
"recombinant gp41 (residues 541-682 of HxB2; Viral Therapeutics, Inc.) (from UniProt P04578 541-682)",IC50,[2],0.25 µg/mL
same,IC50,[3],10 nM
NWFDITNWLWYIKBKBKK-NH2 [Peptide 119],"IC50 (4E10 binding, competitive ELISA)",IgG 4E10,the same IC50
same,IC50,"IgG 4E10; Table 6, constrained analogs, 4E10 binding, read-out: IC50",10 nM
same,helicity in solution by CD,[4],more helical 94-1
recombinant IgG1(kappa) 4E10 (antibody),fold higher affinity than for the original peptide KGND,[5],1000 fold
same,fold higher affinity than for the original peptide KGND,[6],1000 fold
same,fold higher affinity than for the original peptide KGND,"peptide 94-1, …-NH2 [7]",1000 fold
same,fold higher affinity than for peptide 33-1,[8],17 fold
same,fold higher affinity than for peptide 33-1,"peptide 94-1, …-NH2 [9]",17 fold
same,fold higher affinity than for the synthetic peptide (KGND),[10],4 fold
"NWFDITNWLWKKKK-NH2 [peptide 84-1, …-NH2]",Kd,Fab 4E10 [11],100 nM
same,IC50,[12],40 nM
"NWFDITNWLWYIKKKK-NH2 [peptide 94-1, …-NH2]","inhibition of 4E10 neutralization of replication competent HIV-1 SF162 and JR-CSF (TZM-bl cells, luciferase)",[13],30 µg/mL
same,fold improvement of IC50 compared to KGND,[14],> 1000 fold
same,fold improvement of IC50 over the starting peptide (84-1),[14],4 fold
same,Kd,Fab 4E10 [11],18 nM
same,Kd,Fab 4E10 [15],20 nM
same,koff,Fab 4E10 [15],0.0138 s⁻¹
same,kon,Fab 4E10 [15],691000 M⁻¹ s⁻¹
same,IC50,[16],10 nM
SLWNWFDITNWLWYIKKKK-NH2 [peptide …-NH2],IC50,[17],10 nM
